The text below walks through data of publication PMC12573921, “‘Mix-it-up’: accessible time-resolved cryo-EM on the millisecond timescale” (IUCrJ, 2025).

Data set [1] concerns the molecule itself. As to the kind of experiment: cryo-EM structure.
Data set [2] concerns the molecule itself. As to the kind of experiment: cryo-EM structure; 8.6 µM GroEL + 17.1 µM GroES on the grid, 83.3 mM ATP with gold fiducials sprayed with MIU, 300 ms.

B1: Cowpea chlorotic mottle virus (CCMV) coat protein (natural protein)
chain: MSTVGTGKLTRAQRRAAARKNKRNTRVVQPVIVEPIASGQGKAIKAWTGYSVSKWTASCAAAEAKVTSAITISLPNELSSERNKQLKVGRVLLWLGLLPSVSGTVKSCVTETQTTAAASFQVALAVADNSKDVVAAMYPEAFKGITLEQLTADLTIYLYSSAALTEGDVIVHLEVEHVRPTFDDSFTPVY
notes: also called CCMV capsid; copies: 180
Consider B1, for which the binding result in data set [1] was “binds”.

B2: E. coli GroES (natural protein, UniProt P0A6F9 1-97, looked up)
chain: MNIRPLHDRVIVKRKEVETKSAGGIVLTGSAAAKSTRGEVLAVGNGRILENGEVKPLDVKVGDIVIFNDGYGVKSEKIDNEEVLIMSESDILAIVEA
notes: GroES co-chaperonin of E. coli; purified as in Godek et al., 2024; source: T7 Express E. coli, Trc-promoted GroES/GroEL plasmid, purified (ion exchange, FFSP column at pH 4.6, Superdex 75); gift from the Steven Johnson laboratory
A word on the stoichiometry N: it is a count of units in the complex or per binding partner. Turning to B2, in data set [2], the “stoichiometry N” value came out at 7.
